Values of other authors as cited in paper PMC4482139.

What was measured:
[1] = target: nmMLCK1 (Homo sapiens) (UniProt Q15746)
[2] = target: nmMLCK2 (Homo sapiens) (UniProt Q15746)

Kd [1]: 1000 nM
Kd [2]: 250 nM
Substance: Cortactin (from UniProt Q14247)
